Test results from patent US20230235040A1 (ALMIRALL S A, published 2023).
Numbering of substitutions follows the chain as printed.

Experiments:
[1] = target: T1, hu-IL-36β (human IL-36β, N-terminally truncated active form R5-E157) (human); experiment: ELISA, yeast Fab supernatant, anti-Fab-HRP
T1 construct: Purification tag cleaved off; Biotinylated where captured; also called hu-IL-36b
T1 chain: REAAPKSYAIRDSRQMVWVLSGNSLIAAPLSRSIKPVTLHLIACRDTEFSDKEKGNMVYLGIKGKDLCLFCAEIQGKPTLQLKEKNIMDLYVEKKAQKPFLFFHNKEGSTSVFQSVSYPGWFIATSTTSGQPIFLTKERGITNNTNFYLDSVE

[2] = target: T1, hu-IL-36β (human IL-36β, N-terminally …); experiment: cell-based or functional assay
[3] = target: T2, cy-IL-36β (cynomolgus monkey IL-36β, W5-E157) (cynomolgus monkey); experiment: ELISA on coated cy- and hu-IL-36β, yeast Fab supernatant; ratio of OD450
T2 construct: Purification tag cleaved off
T2 chain: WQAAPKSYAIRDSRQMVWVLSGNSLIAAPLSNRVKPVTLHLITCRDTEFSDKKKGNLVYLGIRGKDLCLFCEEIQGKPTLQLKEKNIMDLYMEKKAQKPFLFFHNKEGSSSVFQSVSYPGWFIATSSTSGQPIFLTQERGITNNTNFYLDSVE
Protocol: Cell supernatants from yeast clones of interest were tested for binding to human IL-36 by ELISA as described above. To compare the binding of these supernatants to human and cynomolgus monkey IL-36, IL-36 proteins were coated at 2.5 μg/mL on 96-well Nunc MaxiSorp plates (Thermo Fisher) and the plates blocked with 5% goat serum in PBS. Yeast supernatants were diluted 1:1 with PBST containing 1% w/v BSA and added to the ELISA plates for 1-1.5 hours with agitation. Bound Fab was detected by incubating the plates with F(ab′)2-HRP (Jackson ImmunoResearch). The ELISAs were developed for 3-10 minutes by addition of 50 μL/well of tetramethylbenzidine (TMB) microwell peroxidase substrate (Scytek Laboratories, Inc., Logan, Utah, USA) and enzymatic color development was stopped by acidification with 50 µL/well of 2 N H₂SO₄ (Sigma-Aldrich Corporation, St. Louis, Mo., USA). The optical density of the samples at a wavelength of 450 nm (OD450) was analyzed with a SpectraMax i3X plate reader (Molecular Devices LLC, San Jose, Calif., USA). To estimate the relative affinity of each clone for cynomolgus monkey IL-36 and human IL-36 in this assay, a ratio of OD450 (OD450_cyIL-36/OD450_huIL-36) was calculated for each clone and IL-36 cytokine.

[4] = target: T1, hu-IL-36β (human IL-36β, N-terminally …); experiment: SPR (Biacore 8K), biotinylated IL-36 captured on CAP chip, Fab injected, 25°C
Protocol: (§1) Briefly, a 1:4 dilution of Biotin CAPture Reagent (GE Healthcare, Chicago, Ill., USA)) into HBS-EP buffer (GE Healthcare, Chicago, Ill., USA; 0.01 M HEPES pH 7.4, 0.15 M NaCl, 3 mM EDTA, 0.005% Surfactant P20) was applied to a CAP sensor chip at 2 μL/min flow rate. […] FC1 was kept as a reference. […] The sensorgram was recorded and subject to reference and buffer subtraction before data analysis with the BIACORE® 8K Evaluation Software (GE Healthcare, Chicago, Ill., USA; version 1.1.1.7442). Association rates (kₒₙ) and dissociation rates (koff) were calculated using a simple one-to-one Langmuir binding model. The equilibrium dissociation constant (KD) was calculated as the ratio of koff/kₒₙ.

[5] = target: T1, hu-IL-36β (human IL-36β, N-terminally …); experiment: SPR (Biacore 8K), biotinylated IL-36 captured on CAP chip, Fab injected, 37°C
Protocol: as §1

[6] = target: T3, hu-IL-36α (human IL-36α, N-terminally truncated active form K6-F158) (human, UniProt Q9UHA7 6-158); experiment: phage competition ELISA: Fab on phage, soluble hu-IL-36α titrated against coated hu-IL-36α
T3 construct: Purification tag cleaved off; Biotinylated where captured (SPR, some ELISAs); also called hu-IL-36a
T3 sequence: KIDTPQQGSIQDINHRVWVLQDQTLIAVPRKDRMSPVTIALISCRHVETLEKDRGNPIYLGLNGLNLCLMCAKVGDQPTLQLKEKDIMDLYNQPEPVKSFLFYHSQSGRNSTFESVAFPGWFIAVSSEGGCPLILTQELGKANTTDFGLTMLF
Protocol: (§2) Selected phages with top binding signal were purified to perform phage competition ELISA. The optimal phage concentration was incubated with serially-diluted human IL-36α or human IL-36γ in ELISA buffer in NUNC F plate for two hours. 80 μL of the mixture was transferred to human IL-36α or human IL-36γ coated wells for 15 min to capture unbound phage. The plate was washed with wash buffer (0.05% TWEEN®20 in PBS), and HRP-conjugated anti-M13 antibody (Sino biological, Cat #11973-MM05-H-50) was added in ELISA buffer for 30 min. The plates were washed and developed as described above. The absorbance at 450 nm was plotted as a function of antigen concentration in solution to determine phage IC50.

[7] = target: T3, hu-IL-36α (human IL-36α, N-terminally …); experiment: SPR (Biacore 8K), biotinylated hu-IL-36 captured on CAP chip, Fab injected, 37°C
Protocol: (§3) Briefly, a 1:4 dilution of Biotin CAPture Reagent (GE) into HBS-EP buffer (0.01 M HEPES pH 7.4, 0.15 M NaCl, 3 mM EDTA, 0.005% Surfactant P20) was applied to a CAP sensor chip at 2 uL/min flow rate. For kinetics measurements, 3 nM biotinylated human IL-36α and human IL-36γ was captured at 10 uL/min to achieve ˜50 response units in the second flow cell (FC2). FC1 was kept as a reference. […] The sensorgram was recorded and subject to reference and buffer subtraction before evaluating by BIACORE® 8K Evaluation Software (version 1.1.1.7442). Association rates (kₒₙ) and dissociation rates (koff) were calculated using a simple one-to-one Langmuir binding model.

[8] = target: T4, hu-IL-36γ (human IL-36γ, N-terminally truncated active form S18-D169) (human, UniProt Q9NZH8 18-169); experiment: as above
T4 construct: Purification tag cleaved off; Biotinylated where captured; also called hu-IL-36g
T4 sequence: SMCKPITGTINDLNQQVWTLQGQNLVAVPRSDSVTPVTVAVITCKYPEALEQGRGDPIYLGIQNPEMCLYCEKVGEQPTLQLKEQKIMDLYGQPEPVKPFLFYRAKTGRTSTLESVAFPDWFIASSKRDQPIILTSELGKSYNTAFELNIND
Protocol: as §3

[9] = target: T4, hu-IL-36γ (human IL-36γ, N-terminally …); experiment: phage competition ELISA: Fab on phage, soluble hu-IL-36γ titrated against coated hu-IL-36γ
Protocol: as §2

[10] = target: T3, hu-IL-36α (human IL-36α, N-terminally …); experiment: cell-based or functional assay
[11] = target: T4, hu-IL-36γ (human IL-36γ, N-terminally …); experiment: cell-based or functional assay
[12] = target: T3, hu-IL-36α (human IL-36α, N-terminally …); experiment: SPR (Biacore 8K), biotinylated IL-36 captured on CAP chip, Fab injected, 25°C
Protocol: as §1

[13] = target: T4, hu-IL-36γ (human IL-36γ, N-terminally …); experiment: as above
Protocol: as §1

[14] = target: T3, hu-IL-36α (human IL-36α, N-terminally …); experiment: SPR (Biacore 8K), biotinylated IL-36 captured on CAP chip, Fab injected, 37°C
Protocol: as §1

[15] = target: T4, hu-IL-36γ (human IL-36γ, N-terminally …); experiment: as above
Protocol: as §1

B1: mAb7.0 Fab (yeast clone culture supernatant) (Fab, V domains shown)
VH: QVQLVESGGGVVQPGRSLRLSCAASGFTFSSYGMHWVRQAPGKGLEWVAVISYGGSERYYADSVKGRFTISRDNSKNTLYLQMNSLRAEDTAVYYCAREPWYSSRGWTGYGFDVWGQGTLVTVSS
VL: EIVLTQSPGTLSLSPGERATLSCRASQSVSSNYLAWYQQKPGQAPKLLIYSASSLQSGVPSRFSGSGSGTDFTLTISSLQPEDFATYYCQQTYSYPPTFGQGTKVEIK
notes: Human Fab secreted by the yeast clone, not purified
ELISA OD450 [1]: 2.58 OD450 | % Inhibition, HEK-Blue IL-36R SEAP reporter assay [2]: 84% | ELISA OD450cyIL-36/OD450hu-IL-36 [3]: 3.9 ratio

B2: mAb6.0 Fab (purified, lysyl-C cleaved from recombinant IgG1) (Fab, V domains shown)
VH: QLQLQESGPGLVKPSETLSLTCTVSGGSITSSNYYWGWIRQPPGKGLEWIGSIDYTGSTYYNPSLKSRVTISVDTSKNQFSLKLSSVTAADTAVYYCARGKYYETYLGFDVWGQGTLVTVSS
VL: QSVLTQPPSVSGAPGQRVTISCTGSSSNIGAGYDVHWYQQLPGTAPKLLIYGNTNRPSGVPDRFSGSKSGTSASLAITGLQAEDEADYYCQSYDISLSGWVFGGGTKLTVL
notes: also called purified mAb6.0 Fab
Kd [4]: 1.79 nM | koff [4]: 7.23e-05 s⁻¹ | kon [4]: 40400 M⁻¹ s⁻¹ | Kd [5]: 1.93 nM | koff [5]: 0.000118 s⁻¹ | kon [5]: 61100 M⁻¹ s⁻¹

B3: mAb2 Fab (Fab, V domains shown)
VH: ELQLQESGPGLVKPSETLSLTCTVSGGSISTSSYYWGWIRQPPGKGLEWIGSIYYTGNTYYNPSLKSRVTISVDTSKNQFSLKLSSVTAADTAVYYCARVRYGVGVPRYFDPWGQGTLVTVSS
VL: B2 VL with Q1E, G32H, T54D, I95Y, W100Y
apparent IC50 (pooled screen) [6]: 1.2 nM | apparent Kd (pooled screen) [7]: 0.23 nM | apparent koff (pooled screen) [7]: 0.000264 s⁻¹ | apparent kon (pooled screen) [7]: 1.16e+06 M⁻¹ s⁻¹ | apparent Kd (pooled screen) [8]: 0.41 nM | apparent koff (pooled screen) [8]: 0.000574 s⁻¹ | apparent kon (pooled screen) [8]: 1.39e+06 M⁻¹ s⁻¹ | apparent IC50 (pooled screen) [9]: 3.2 nM | IC50, IL-36-stimulated IL-8 secretion by HaCat cells [10]: 0.3 nM | IC50, IL-36-stimulated IL-8 secretion by HaCat cells [11]: 0.96 nM

B4: mAb6.0 Fab (yeast clone culture supernatant) (Fab, V domains shown)
VH: B2 VH
VL: B2 VL
notes: as for B1
ELISA OD450 [1]: 2.34 OD450 | % Inhibition, HEK-Blue IL-36R SEAP reporter assay [2]: 86% | ELISA OD450cyIL-36/OD450hu-IL-36 [3]: 4 ratio

B5: mAb2.10 Fab (Fab, V domains shown)
VH: B3 VH with T31D, N58E, N62A, Y109H
VL: B2 VL with Q1E, G32H, T54D, I95Y, W100Y
notes: Recombinant Fab with 8xHis tag (Expi293F)
Kd [7]: 0.15 nM | koff [7]: 0.000222 s⁻¹ | kon [7]: 1.49e+06 M⁻¹ s⁻¹ | Kd [8]: 0.13 nM | koff [8]: 0.00018 s⁻¹ | kon [8]: 1.37e+06 M⁻¹ s⁻¹ | IC50, IL-36-stimulated IL-8 secretion by HaCat cells [10]: 0.38 nM | IC50, IL-36-stimulated IL-8 secretion by HaCat cells [11]: 1.09 nM

B6: mAb2.11 Fab (Fab, V domains shown)
VH: B3 VH with T31E, N58E, N62A, V100L
VL: B2 VL with Q1E, G32H, T54D, I95Y, W100Y
notes: as for B5
Kd [7]: 0.13 nM | koff [7]: 0.000244 s⁻¹ | kon [7]: 1.91e+06 M⁻¹ s⁻¹ | Kd [8]: 0.11 nM | koff [8]: 0.000214 s⁻¹ | kon [8]: 1.92e+06 M⁻¹ s⁻¹ | IC50, IL-36-stimulated IL-8 secretion by HaCat cells [10]: 0.42 nM | IC50, IL-36-stimulated IL-8 secretion by HaCat cells [11]: 1.05 nM

B7: mAb2.0 Fab (purified, lysyl-C cleaved from recombinant IgG1) (Fab, V domains shown)
VH: B3 VH with E1Q
VL: B2 VL with G32H, T54D, I95Y, W100Y
notes: also called purified mAb2.0 Fab
Kd [12]: 1.2 nM | koff [12]: 0.000413 s⁻¹ | kon [12]: 345000 M⁻¹ s⁻¹ | Kd [13]: 0.98 nM | koff [13]: 0.000358 s⁻¹ | kon [13]: 366000 M⁻¹ s⁻¹ | Kd [14]: 0.3 nM | koff [14]: 0.000502 s⁻¹ | kon [14]: 1.69e+06 M⁻¹ s⁻¹ | Kd [15]: 1.61 nM | koff [15]: 0.00108 s⁻¹ | kon [15]: 671000 M⁻¹ s⁻¹

B8: mAb8.0 Fab (yeast clone culture supernatant) (Fab, V domains shown)
VH: QVQLVQSGAEVKKPGSSVKVSCKASGGTFSNYAISWVRQAPGQGLEWMGGILPILGTVDYAQKFQGRVTITADESTSTAYMELSSLRSEDTAVYYCAREPWYRLGAFDVWGQGTLVTVSS
VL: DIQMTQSPSSLSASVGDRVTITCRASQTIYKYLNWYQQKPGKAPKLLIYAASSLQSGVPSRFSGSGSGTDFTLTISSLQPEDFATYYCQQYSSIPYTFGQGTKVEIK
notes: as for B1
ELISA OD450 [1]: 2.63 OD450 | % Inhibition, HEK-Blue IL-36R SEAP reporter assay [2]: 85%
